Results taken from article doi:10.1101/871988.
pKd: −log10 of the molar value.

Target: recombinant human scavenger receptor B1 (SRB1) (human) (UniProt Q8WTV0)
Assay: SPR

Chain of UniProt Q8WTV0 (Q8WTV0 whole entry): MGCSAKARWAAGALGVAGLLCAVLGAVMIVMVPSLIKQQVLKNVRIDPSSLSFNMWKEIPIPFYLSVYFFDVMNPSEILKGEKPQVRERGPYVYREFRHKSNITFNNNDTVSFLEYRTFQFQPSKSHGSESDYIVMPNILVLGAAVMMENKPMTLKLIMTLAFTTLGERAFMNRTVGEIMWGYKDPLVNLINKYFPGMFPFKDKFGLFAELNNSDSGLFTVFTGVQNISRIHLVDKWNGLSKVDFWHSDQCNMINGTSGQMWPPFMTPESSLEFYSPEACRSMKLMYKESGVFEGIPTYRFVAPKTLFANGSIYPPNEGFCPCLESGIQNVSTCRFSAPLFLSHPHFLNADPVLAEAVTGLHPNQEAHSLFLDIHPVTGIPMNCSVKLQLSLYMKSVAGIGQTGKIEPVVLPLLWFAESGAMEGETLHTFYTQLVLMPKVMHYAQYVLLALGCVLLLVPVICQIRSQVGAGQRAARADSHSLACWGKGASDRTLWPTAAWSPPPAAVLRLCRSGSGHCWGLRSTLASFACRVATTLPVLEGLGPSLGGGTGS

Substance | pKd
human high density lipoprotein (HDL) (from UniProt P02647 19-267) (complex) | 7.73
recombinant dengue virus non-structural protein 1 (DENV NS1) (natural protein) | 7.33
